Laboratory results taken from patent US5679641A, “Peptides of human P53 protein for use in human T cell response inducing compositions, and human P53 protein-specific cytotoxic t-lymphocytes” (Rijksuniversiteit Leiden, priority 1992, dated 1997).
No end group written: not given here.

What was measured:
HLA-A2.1 molecule = target: T1, HLA-A2.1 molecule (Homo sapiens, UniProt P04439, D140Y/D185E/D98H/E176V/E277Q/G131W/G231S/I119V/I121R/I166T/I218V/L300P/L318F/N151K/N90K/P208A/P217A/Q86G/Q94H/R138H/R169H/T345S); assay: Peptide binding: upregulation of HLA-A2.1 expression on (174.CEM) T2 cells, FACScan; format: cell-based; settings: for fluorescence ratio (i.e. binding ability): 200 μg/ml peptide, 16 hours at 37° C., (174.CEM) T2 cells, antibody BB7.2, mean fluorescence with peptide divided by without, positive when ratio of 1.2 is reached
T1 construct: endogenous in cells; host or cells: 174.CEM T2 (antigen-processing-defective human T x B hybrid cell line, provided by P. Cresswell)

HLA-A2.1 positive PBL = assay: Induction of primary in vitro CTL response with peptide loaded 174CEM.T2 cells, cloning of CTL; format: cell-based, human; settings: peptide loaded antigen processing defective cell line 174.CEM T2, peptide 80 μg/ml, PBL of healthy HLA-A2.1 positive donor
Description: Responder T cells are included in mononuclear white blood cells (PBL) of an HLA-A2.1 positive healthy donor. The PBL were separated from a buffycoat by Ficoll procedure (LYMPHOPREP of Nycomed-pharma, Oslo, Norway, cat. no. 105033) and washed two times in RPMI 1640 (Gibco Paislan, Scotland, cat. no. 041-02409) supplemented with 30% pooled human serum (tested for its capacity to support mixed lymphocyte cultures), 2 mM glutamine (ICN Biochemicals, Inc., Costa Mesa, Calif., USA, cat. no. 15-801-55), penicillin (100 IU/ml, Brocades Pharma, Leiderdorp, The Netherlands), kanamycin ([…], Sigma, St. Louis, Mo., USA).
174CEM.T2 (T2) cells in a concentration of 2×10^6 per ml were incubated for 13 hours at 37° C. in a T25 flask (Falcon, Becton & Dickinson, Plymouth, England, cat. no. 3013) in serum-free ISCOVE's medium (Biochrom KG, Seromed, Berlin, Gemany, cat. no. F0465) with glutamine (2 mM, ICN Biochemicals Inc., Costa Mesa, Calif., USA, cat. no. 15-801-55) and antibiotics as mentioned under 2 and individual p53 peptides at a final concentration of 80 μg/ml. Subsequently the T2 cells were spun down and treated at a density of 20×10^6 cells/ml with Mitomycin C (final concentration 50 μg/ml) in serum-free RPMI 1640 (manufacturer see 2) medium during one hour at 37° C. Thereafter the T2 cells were washed three times in RPMI 1640. […]

## LLPENNVLS [compound 3, residues 25-33 of human p53]
HLA-A2.1 molecule
  fluorescence ratio (i.e. binding ability): 1.7
HLA-A2.1 molecule; 174.CEM T2 cells, mean HLA-A2.1 fluorescence
  binding to HLA-A2.1 molecule (in words): strong ability to bind to HLA-A2.1
HLA-A2.1 positive PBL
  primary in vitro human CTL response against the peptide: possible so far to generate a primary in vitro human CTL response

## ALNKMFYQL [compound 27]
HLA-A2.1 molecule
  fluorescence ratio (i.e. binding ability): 1.2

## KLFCQLAXT (KLFCQLAKT) [compound 29, residues 132-140 of human mp53 (mutant p53)]
HLA-A2.1 molecule
  fluorescence ratio (i.e. binding ability): 1.3

## CSCC[C@H](NC(=O)[C@H](CCCCN)NC(=O)[C@H](CC(N)=O)NC(=O)[C@H](CC(C)C)NC(=O)[C@H](C)N)C(=O)N[C@@H](Cc1ccccc1)C(=O)N[C@@H](CS)C(=O)N[C@@H](CCC(N)=O)C(=O)N[C@@H](CC(C)C)C(=O)N[C@@H](C)C(=O)O [compound 11, ALNKMFCOLA]
HLA-A2.1 molecule
  fluorescence ratio (i.e. binding ability): 1.4
